Data reported in the nanobody polyreactivity screen of Harvey et al. (2022).

Assay: yeast display, Sf9 membrane polyspecificity reagent, FACS + sequencing; frameworks hold sequencing errors
How it was run: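 Galactose-induced (36–48 hours) yeast carrying a synthetic nanobody display library were exposed to 10% biotinylated, detergent-solubilized Sf9 membrane reagent at 4 °C for 1 hour. FACS followed streptavidin microbead enrichment, using low and high (top ~1%) gates for expression (anti-HA) and reagent binding (streptavidin). Colony PCR, MiSeq 2 × 250 sequencing and CDR-length filtering followed. Labels for polyreactivity reflect the gate of origin.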

QVQLVESGGGLVQAGGSLRLSCASSGLIFYHYAMGWYRQAPGKERELVAAISWRGGTTYYADSVKGRFTISSDNAKNTVYLQMNSLKPEDTAVYYCNALLRSPGLGYDYWGQGTQVTVSS
polyreactivity (PSR sort gate): high polyreactivity

QVQLVESGGGLVQAGGSLRLSCASSGLTFWPYVKGWYRQAPGKERELVAAIEDTGITYYADSVKGRFTISRDNAKNTVYLQMNSLTPDDTAVYYCATDWDYYFPWIYPSDAGPEDGYWGQGTQVTVSS
polyreactivity (PSR sort gate): low polyreactivity

QVQLVESGGGLVQAGGSLRLSCASSGNTFKYDAMGWYRQAPGKERELVAAITWNGARTYYADSVKGRFTISRDNANYTGYLQMNRLKAEVTAVYYCNARQGYRFDYWGQGTQVSVSS
polyreactivity (PSR sort gate): high polyreactivity

QVQLVESGGGLVQAGGSLRLSCASSGRIFDGYAMVWYRQAPGKERELVATISSGGSTYYADSVKGRFTISRDNAKNTVYLQMNSLKPEDTAVYYCAADSWVQFDYWGQGTQVTVSS
polyreactivity (PSR sort gate): low polyreactivity

QVQLVESGGGLVQAGGSLRLSCASSGRIFDYNAKGWYRQAPGKERELVAAINSGGSTYADSVKGRFTISRDNAKNTVDLQMNSLKPEDTAVYYCAKSLGQTDWEYDSWGQGTQVTVSS
polyreactivity (PSR sort gate): low polyreactivity

QVQLVESGGGLVQAGGSLRLSCASSGRIFFTNAMGWYRQAPGKERELVAAIRSSGGRTYYADSVKGRFTISRDNAKNTVYLQMNSLKPEDTAVYYCNVVDGRHISHYNYWGQGTQVTVSS
polyreactivity (PSR sort gate): high polyreactivity

QVQLVESGGGLVQAGGSLRLSCASSGRIFGLYAMGWNRQAPGKERELVAAISRGGGSTYYADSVKGRFTISRDNAKNTVYLQMNSLKPEDTAVYYCATGLGYFSRLDYWGQGTQVTVSS
polyreactivity (PSR sort gate): low polyreactivity

QVQLVESGGGLVQAGGSLRLSCASSGRIFGTYAMGWYRQAPGKERELVARIRTSGSTNYADSVKGRFTISRDNAKNTVYLQMNSLKPEDTAVYYCAADRRYYSAYEYWGQGTQVTVSS
polyreactivity (PSR sort gate): high polyreactivity

QVQLVESGGGLVQAGGSLRLSCASSGRIFGVYAMGWYRQAPGKERELVAAITRGASTYYADSVKGRFTISRDNAKNTVYLQMNSLKPEDTAVYYCAVSQDRGIYRKYDYWGQGTQVTVSS
polyreactivity (PSR sort gate): high polyreactivity

QVQLVESGGGLVQAGGSLRLSCASSGRIFRVNGMGWYRQAPGKESELVATITGSGGSTYYADSVKGRFTISRDNAKNTVYLQMNSLKPEDTAVYYCAAVSYWPTDRYYSWGQGTQVTVSS
polyreactivity (PSR sort gate): low polyreactivity

QVQLVESGGGLVQAGGSLRLSCASSGRIFRYNTMGWYRPAPGKERELVADITSSDSSTYYADSVKGRFTISRDNAKNTVDLQMNSLKPEETAVYYCAARDSGYGWRYSYWGQGTQVTVSA
polyreactivity (PSR sort gate): low polyreactivity

QVQLVESGGGLVQAGGSLRLSCASSGRIFWRNTMGWYRQAPVKETEFVASINGSGGSTSYADSVKGRFTISRDNAMNTVYLQMISLKPEDTEVDYCATDVTYQDVQLDYWGQRTQVTVSS
polyreactivity (PSR sort gate): low polyreactivity

QVQLVESGGGLVQAGGSLRLSCASSGRIFYYNAMGWYRQAPGKERELVAAISKRGGITSYADSVKGRFTISRDNAKNTVYLPMNSLKPEDTAVYYCAADLVPWRGGYYYWGQGTLVTVSS
polyreactivity (PSR sort gate): high polyreactivity

QVQLVESGGGLVQAGGSLRLSCASSGRNFCIYGMAWYRQAPGKERELVAAISYDSGSTYYADSVTGRFTISRDNAKNTVYLQMNSLNPEDTAVYYCAAEWGLVIYSTYGYDYWGQGTQVTVSS
polyreactivity (PSR sort gate): low polyreactivity

QVQLVESGGGLVQAGGSLRLSCASSGRTFFRNPMGWYRQAPGKERELVAAISKRGGSTYYADSVKGRFTISRDNAKNTVYLQMISLSPEDTAVYYCNADPRTVGLDYWGQGTQVTVSS
polyreactivity (PSR sort gate): high polyreactivity

QVQLVESGGGLVQAGGSLRLSCASSGRTFLINAMGWYRQAPWKERELVATISRSGGSTYYADSVKGRFTISRDNAKITVYLQMNSLKPEDTAVYYCAALVRIGYYYWGQGTQVTVSS
polyreactivity (PSR sort gate): high polyreactivity

QVQLVESGGGLVQAGGSLRLSCASSGRTFRYYAMGWYRQAPGKERELVAAIRSGGITNYADSVKGRFTISRDNAKNTVYLQMNSLKPEDTAVYYCAVETPSTWFSGWGYDYDYWGQGTQVTVSS
polyreactivity (PSR sort gate): high polyreactivity

QVQLVESGGGLVQAGGSLRLSCASSGRTFTHYAMGWYRQAPGKERELVASISDGGRTHYADSVTGRFTISRDNAKNTVYLQMNSLKPEDTAVYYCATDRYPTRRYDYWGQGTQVTVSS
polyreactivity (PSR sort gate): low polyreactivity

QVQLVESGGGLVQAGGSLRLSCASSGRTFVWNAMGWYRQAPGKERELVAAIDWSGGSTYYADSVKGRFTISRDYAKITVYLQMNSLKPEDTAVYYCAKEYWYRALWYNYWGQGTQVTVSS
polyreactivity (PSR sort gate): high polyreactivity

QVQLVESGGGLVQAGGSLRLSCASSGRTFYQNAMGWYRQAPGKESEFVAAITGGTGSTHYADSVKGRFTISRDNAKNTVYLQMNSLKPEDTAVYYCATRYLFGFSRYDYWGQGTQVTVSS
polyreactivity (PSR sort gate): low polyreactivity

QVQLVESGGGLVQAGGSLRLSCASSGSIFAYNTMGRYRQAPGKERELVAAITGRAGSTYYADSVKGRFTISRDNAKNTFYLQMNSLKPEDTAVYYCAAEYRFAFPLWLDYWGQGTQVTVSS
polyreactivity (PSR sort gate): high polyreactivity

QVQLVESGGGLVQAGGSLRLSCASSGSIFGSYAMGWYRQPPGKESELDAAITGIGGSTYYADSVKGRFTISRDNAKNTVYLQMNSLKPEATAVYYCATRDRYRAPVVGGNYWVQGTQVTVSS
polyreactivity (PSR sort gate): high polyreactivity

QVQLVESGGGLVQAGGSLRLSCASSGSIFKANGMGWYRQAPGKEREFVAAITRSGATTYYADSVKGRFTISRDNAKNTVYLQMNSLKTEDTAVYYCNVKAWRDLYYAGFDYWGQGTQVTVSS
polyreactivity (PSR sort gate): low polyreactivity

QVQLVESGGGLVQAGGSLRLSCASSGSIFLYNAMGWYRQAPGKERELVAVINGRGGTYYADSVKGRFTISRDNAKNTVYLQMNSLKPEDTAVYYCATGFPPSAWYDSVRFEDRDSWGQGTQVTVSS
polyreactivity (PSR sort gate): low polyreactivity

QVQLVESGGGLVQAGGSLRLSCASSGSIININVMGWYRQAPGKERELVAAINSGTSTYYADSVKGRFTFSRDNAKITVYLKMNSLKPEDTAVYYCAARNLFTGRRLFYFWGQGTQVTVSS
polyreactivity (PSR sort gate): low polyreactivity

QVQLVESGGGLVQAGGSLRLSCASSGSKLGINVMGWYRQAPGKERELVAAISRRGGSTNYADSVKGRFTISRDNAKNTVYLQMNSLKPEDTAVYYCNALGHVQGYDYWGQGTQVTVSS
polyreactivity (PSR sort gate): high polyreactivity

QVQLVESGGGLVQAGGSLRLSCASSGSTFEANAMGWSRQAPGKDRELVAAISSRGGSTYYADSVKGRFTISRDNGKNTVYFQRNSLKPEDTAVYYCAALLRSGGEYDYWGQGTQVTVSS
polyreactivity (PSR sort gate): high polyreactivity

QVQLVESGGGLVQAGGSLRLSCASSGSTFGPNDMGWYRQAPGKERELVAAISRSGDDTYYADSVKGRFTISRDNAKNTVYLQMNSLKPEDTAVYYCNADGRPFFLRPLRWELDYWGQGTQVTVSS
polyreactivity (PSR sort gate): low polyreactivity

QVQLVESGGGLVQAGGSLRLSCASSGSTFKVYDMGWSRQAPGKERELVATITWGGGGTYYADSVTGRFTISRDNAKNTVYLLMNSLKPQDTAVYFCAAEVTLYSCYRYWYRYEYWGQGTQVTVSS
polyreactivity (PSR sort gate): high polyreactivity

QVQLVESGGGLVQAGGSLRLSCASSGSTFYSYVMGWYRQAPGKERELVAAITYSGGRTYYADSVKGRFTISRDNEKNTVYFQMYSLKPEDTAVYYCAKRVFNYQRYDYWGQGTQVTVSS
polyreactivity (PSR sort gate): high polyreactivity

QVQLVESGGGLVQAGGSLRLSCASSGSTFYYYAMGWYRPAPGKERELVAAITKSGGSTYYADSVKGRFTISRDNAKNTVYLQMNSLKPEVTAVYYCAAYLRSGYKFDYWGQGTQVTVSS
polyreactivity (PSR sort gate): low polyreactivity

QVQLVESGGGLVQAGGSLRLSCASSGSTLRWYAMGWYRQAPGKERELVARISWTTGSTYYADSVKGRFTISRDNAKNTVYLQMNSLKPEDTAVYYCAKGKKSSRSGIYNYWGQGTQVTVSS
polyreactivity (PSR sort gate): high polyreactivity
